{"source": "patent US20250296984A1", "about": "(THELPER, published 2025)", "binders": {"B1": {"name": "US28-14-4E4-1E8 (antibody, mouse IgG1, kappa, V domains shown)", "VH": "EVKLVESGGDLVKPGGSLKLSCAASGFTFSSYAMSWVRQTPEKRLEWVASISSGGRTYYPDSVKGRFTISRDNARNILYLQMSSLRSEDTAIYYCARGGTRHSYGNGFDYWGQGTTLTVSS", "VL": "QIVLSQSPTIMSASPGEKVTMTCSASSSVSYMHWYQQKSGTSPKRWIYDSSKLASGVPARFSGSGSGTSYSLTISSMEAEDAATYYCQQWTSNPPITFGAGTKLELKR"}, "B2": {"name": "US28-13-1H3-1A10 (antibody, mouse IgG1, kappa, V domains shown)", "VH": "EVKLVESGGVLVKPGGSLKFSCAASGFTLSSHALSWVRQTPEKRLEWVASISSRGRTYYPDSVKGRFTVSRDNARNILYLQVSSLRSEDTAMYYCTRGGTHYSYGNGFDFWGQGTTLTVSS", "VL": "B1 VL with S5T, T9A, A25V, S50T, S76T, T91S, S92N", "notes": "also called 14-1H3-1A10"}, "B3": {"name": "US28-13-1C10-1C10 (antibody, mouse IgG1, kappa, V domains shown)", "VH": "B2 VH with L29F", "VL": "B1 VL with S5T, T9A, A25V, S50T, S76T, T91S, S92N"}, "B4": {"name": "US28-13-1C10-1G9 (antibody, mouse IgG1, kappa, V domains shown)", "VH": "EVKLVESGGGLVKPGGSLKLSCAASGFTFSSYAMSWVRQTPEKRLEWVASISSGGSTYYPDSVKGRFTISRDNARNILYLQMSSLRSEDTAMYYCARGGSTMITTGLGFAYWGQGTLVTVSA", "VL": "B1 VL with S5T, T9A, S50T, T91S, I96L"}, "B5": {"name": "US28-4-2F5B11 (antibody, mouse IgG1, kappa, V domains shown)", "VH": "EVQLQESGAELAKPGASVKMSCKASGYTFSSYWIHWIKQRPGQGLEWIGYINPNTAYTEFNQKFMDKATLTADKSSSTAYMQLTSLTSEDSAVYYCARLRSDRTGFAYWGQGTLVTVSA", "VL": "not shown"}, "B6": {"name": "US28-4-4H3C3 (antibody, mouse IgG1, kappa, V domains shown)", "VH": "QVQLQQSGAELAKPGASVKMSCKASGYTFTSYWMHWVKQRPGQGLEWIGYINPSTGYAEYNQKFKDKATLTADKSSSTAYMQLSSLTSEDSAVYYCARLRFGSSGFAYWGQGTLVTVSS", "VL": "not shown"}, "B7": {"name": "US28-4-7B1F3 (antibody, mouse IgG1, kappa, V domains shown)", "VH": "EVQLQQSGAELAKPGASVKMSCKASGYTFTNYWMHWVKQRPGQGLEWIGYVNPRTGYTEYNQKFKDKATLTADKSSRTAYMQLSSLTSEDSAVYSCARILNGTGFAYWGQGTLVTVSA", "VL": "DIVLTQSPSSLTVSVGEKFTMSCKSSQSLLYSSNQKNYLAWYQQKPGQSPKLLIYWASTRESGVPDRFTGSGSGTDFTLAISSVKPEDLAIYYCQQYYSFPLTFGAGTKLEIKR", "notes": "also called mouse 7B1F3; mouse7B1F3"}, "B8": {"name": "2F5B11-Myc (antibody, V domains shown)", "VH": "B5 VH", "VL": "not shown"}, "B9": {"name": "4H3C3-Myc (antibody, V domains shown)", "VH": "B6 VH", "VL": "not shown"}, "B10": {"name": "7B1F3-Myc (antibody, V domains shown)", "VH": "B7 VH", "VL": "DIVLTQSPSSLTVSVGEKFTMSCKSSQSLLYSSNQKNYLAWYQQKPGQSPKLLIYWASTRESGVPDRFTGSGSGTDFTLAISSVKPEDLAIYYCQQYYSFPLTFGAGTKLEIK"}}, "key": {"[1]": {"biological_target": "T1, US28 of HCMV strain DB fused to a C-terminal 6His tag (human cytomegalovirus (HCMV) strain DB, UniProt P69332 1-354)", "T1 chain": "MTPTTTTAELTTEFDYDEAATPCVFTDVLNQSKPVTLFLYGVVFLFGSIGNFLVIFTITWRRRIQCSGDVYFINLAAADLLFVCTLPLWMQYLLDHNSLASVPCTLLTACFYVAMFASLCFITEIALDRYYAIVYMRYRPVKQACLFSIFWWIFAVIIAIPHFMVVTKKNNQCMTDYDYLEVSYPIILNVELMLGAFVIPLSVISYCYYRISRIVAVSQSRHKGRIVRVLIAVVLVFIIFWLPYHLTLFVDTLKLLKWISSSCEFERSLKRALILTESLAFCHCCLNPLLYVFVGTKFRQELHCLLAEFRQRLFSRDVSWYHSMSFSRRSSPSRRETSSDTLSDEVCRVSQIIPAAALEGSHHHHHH", "assay": "flow cytometry, CHO-US28 against control CHO cells"}, "Bio-Peptide-1": {"biological_target": "T2, Bio-Peptide-1 (human cytomegalovirus (4N variant, e.g. …))", "T2 construct": "also called US28 ECD3 genotype 4N peptide", "T2 peptide": "Biotin-TKKNNQCMTDYDYLEVS", "assay": "ELISA, Bio-Peptide-1 coated"}, "[2]": {"biological_target": "T1, US28 of HCMV strain DB fused to a …", "assay": "flow cytometry, CHO-US28 against control CHO cells"}, "[3]": {"biological_target": "T3, US28 of HCMV strain TB40/E fused to a C-terminal 6His tag (human cytomegalovirus (HCMV) strain …, UniProt P69332 1-354)", "T3 construct": "also called TB40/E form of US28", "T3 chain": "T1 chain with A8T, D15E, E18L, A19G, V24T, I49V, N170D", "assay": "flow cytometry, processed data of FIG. 33"}, "[4]": {"biological_target": "T4, US28 of HCMV strain Merlin fused to a C-terminal 6His tag (human cytomegalovirus (HCMV) strain …, UniProt F5HF62 1-354)", "T4 construct": "also called Merlin-encoded US28", "T4 sequence": "T1 chain with A19D, N170D, S330G", "assay": "flow cytometry, processed data of FIG. 33"}, "[5]": {"biological_target": "T1, US28 of HCMV strain DB fused to a …", "assay": "flow cytometry, processed data of FIG. 33"}, "[6]": {"biological_target": "T5, US28 of HCMV strain VHL/E fused to a C-terminal 6His tag (human cytomegalovirus (HCMV) strain …, UniProt P69332 1-354)", "T5 construct": "also called VHL/E-encoded US28", "T5 chain": "T1 chain with E18D, A19E, F25L, N170D, R267K, V346A", "assay": "flow cytometry, transfected HEK Phoenix cells, 6.76 nM"}, "[7]": {"biological_target": "T3, US28 of HCMV strain TB40/E fused to a …", "assay": "flow cytometry, transfected HEK Phoenix cells, 6.76 nM"}, "[8]": {"biological_target": "T4, US28 of HCMV strain Merlin fused to a …", "assay": "flow cytometry, transfected HEK Phoenix cells, 6.76 nM"}, "[9]": {"biological_target": "T1, US28 of HCMV strain DB fused to a …", "assay": "flow cytometry, transfected HEK Phoenix cells, 6.76 nM"}, "[10]": {"biological_target": "T5, US28 of HCMV strain VHL/E fused to a …", "assay": "flow cytometry, processed data of FIG. 33; reference"}}, "note": "Positions count from the first letter of the chain named. Read-outs that look alike come from different tables or passages of the source. Where no end group is shown, it is not given here. The star is where a group is joined. Biotin = O=C1N[C@H]2[C@H](CS[C@H]2CCCCC(=O)*)N1", "data": [{"binder": "B1", "values": [{"measurement": "binding specificity comparative to the specificity displayed by VUN100", "setting": "[1]", "result": 4.6, "unit": "fold"}, {"measurement": "absorbance", "setting": "Bio-Peptide-1", "result": 2.99}]}, {"binder": "B2", "values": [{"measurement": "binding specificity comparative to the specificity displayed by VUN100", "setting": "[1]", "result": 2.29, "unit": "fold"}, {"measurement": "absorbance", "setting": "Bio-Peptide-1", "result": 3}]}, {"binder": "B3", "values": [{"measurement": "binding specificity comparative to the specificity displayed by VUN100", "setting": "[1]", "result": 1.74, "unit": "fold"}, {"measurement": "absorbance", "setting": "Bio-Peptide-1", "result": 3.11}]}, {"binder": "B4", "values": [{"measurement": "absorbance", "setting": "Bio-Peptide-1", "result": 3.11}]}, {"binder": "B5", "values": [{"measurement": "binding specificity comparative to the specificity displayed by VUN100", "setting": "[2]", "result": 4.21, "unit": "fold"}]}, {"binder": "B6", "values": [{"measurement": "binding specificity comparative to the specificity displayed by VUN100", "setting": "[2]", "result": 3.35, "unit": "fold"}]}, {"binder": "B7", "values": [{"measurement": "binding specificity comparative to the specificity displayed by VUN100", "setting": "[2]", "result": 1.67, "unit": "fold"}]}, {"binder": "B8", "values": [{"measurement": "variation in binding relative to US28 as encoded by VHL/E", "setting": "[3]", "result": -0.92}, {"measurement": "variation in binding relative to US28 as encoded by VHL/E", "setting": "[4]", "result": 0.01}, {"measurement": "variation in binding relative to US28 as encoded by VHL/E", "setting": "[5]", "result": -0.04}, {"measurement": "binding value (Preliminary Binding Data)", "setting": "[6]", "result": 1.08}, {"measurement": "binding value (Preliminary Binding Data)", "setting": "[7]", "result": 0.57}, {"measurement": "binding value (Preliminary Binding Data)", "setting": "[8]", "result": 1.09}, {"measurement": "binding value (Preliminary Binding Data)", "setting": "[9]", "result": 1.04}, {"measurement": "variation in binding relative to US28 as encoded by VHL/E", "setting": "[10]", "result": 0}]}, {"binder": "B9", "values": [{"measurement": "variation in binding relative to US28 as encoded by VHL/E", "setting": "[3]", "result": -0.16}, {"measurement": "variation in binding relative to US28 as encoded by VHL/E", "setting": "[4]", "result": -0.38}, {"measurement": "variation in binding relative to US28 as encoded by VHL/E", "setting": "[5]", "result": 0.59}, {"measurement": "binding value (Preliminary Binding Data)", "setting": "[6]", "result": 0.16}, {"measurement": "binding value (Preliminary Binding Data)", "setting": "[7]", "result": 0.14}, {"measurement": "binding value (Preliminary Binding Data)", "setting": "[8]", "result": 0.12}, {"measurement": "binding value (Preliminary Binding Data)", "setting": "[9]", "result": 0.37}, {"measurement": "variation in binding relative to US28 as encoded by VHL/E", "setting": "[10]", "result": 0}]}, {"binder": "B10", "values": [{"measurement": "variation in binding relative to US28 as encoded by VHL/E", "setting": "[3]", "result": 0.14}, {"measurement": "variation in binding relative to US28 as encoded by VHL/E", "setting": "[4]", "result": 0.21}, {"measurement": "variation in binding relative to US28 as encoded by VHL/E", "setting": "[5]", "result": 0.64}, {"measurement": "binding value (Preliminary Binding Data)", "setting": "[6]", "result": 0.37}, {"measurement": "binding value (Preliminary Binding Data)", "setting": "[7]", "result": 0.42}, {"measurement": "binding value (Preliminary Binding Data)", "setting": "[8]", "result": 0.45}, {"measurement": "binding value (Preliminary Binding Data)", "setting": "[9]", "result": 0.91}, {"measurement": "variation in binding relative to US28 as encoded by VHL/E", "setting": "[10]", "result": 0}]}]}
